Results: article PMC4503980 (Scientific Reports, 2015)
Ends that are not written are not given here. Peptide text beside a SMILES is read from it. * marks the point of attachment. X1 = CCN1C(=CC=CC=CC2=[N+](CCCCCC(=O)NCCN3C(=O)CC(*)C3=O)c3ccc(S(=O)(=O)[O-])cc3C2(C)C)C(C)(C)c2cc(S(=O)(=O)O)ccc21

Assays:
nNOS-PDZ = target: T1, nNOS-PDZ (Homo sapiens, UniProt P29475); assay: FP saturation and inhibition assay, Cy5-Nav1.4 probe / nNOS-PDZ; format: binding
T1 construct: nNOS-PDZ (12–130, human); made in house; host or cells: E. coli
Experimental: Fluorescent probes were made by attaching fluorophores (Cy5) to C-terminal 10- or 11-mer (C10 or C11) peptide ligands representing canonical and natural occurring protein partners (Supplementary Table S1). […] (Fig. 2).
(b) Cy5-GluN2B as probe (50 nM), [PDZ2] = 6 μM. (c) Cy5-CRIPT as probe (50 nM), [PDZ3] = 5 μM. […] Error bars indicate SEM based on three individual measurements.
nNOS-PDZ (12–130, human) and α-Syntrophin-PDZ (82–200, human), both comprising an N-terminal His-tag/FXa-site sequence ([…]), were likewise expressed in E. coli and purified by HisTrap chromatography followed by gel-filtration as described in details previously. To make the TAMRA-labelled nNOS-PDZ, mutant nNOS-PDZ (V36C) protein was generated by standard site-directed mutagenesis and characterized as described previously. Here, dithiothreitol was added to the pooled protein sample after HisTrap purification to a final concentration of 10 mM to eliminate unwanted disulfide bonds, and a final gel-filtration (50 mM NaPi buffer pH 7.5) was performed to remove impurities and salts. Next, purified nNOS-PDZ (V36C) was desalted by dialysis into 50 mM (NH4)2CO3 buffer (SnakeSkin dialysis tubing 3.5 MWCO, Pierce, Rockford, IL, USA) and subsequently lyophilized. nNOS-PDZ (V36C) was redissolved in 500 μL buffer (6 M GnHCl, 200 mM NaPi) and solid TAMRA-maleimide (5-tetramethylrhodamine-C2-maleimide; Anaspec, Fremont, CA, USA) was added in excess (cf. ESI-LC-MS). The coupling reaction was incubated at room temperature for 16 hours and TAMRA-labelled nNOS-PDZ was purified by preparative HPLC, and refolded in assay buffer. Functional validation was performed by FP[19], and all final proteins were characterized for purity and identity by SDS-PAGE and ESI-LC-MS.
Incubation time was 10–15 minutes (room temperature), and the assay was performed in a 1 × TBS buffer (150 mM NaCl, 10 mM Tris, pH 7.4) using black flat-bottom 384-well plates (Corning Life Sciences, NY) and a Safire2 plate-reader (Tecan, Männedorf, Switzerland). G-factor was adjusted so that probe alone (i.e. without protein interacting-partner) would give an FP value of 20 mP. This background value was subsequently subtracted from the raw data before plotting and analyzing the data. TAMRA- and Cy5-probes were measured at excitation/emission values of 530/585 nm (bandwidth = 20 nm) and 635/670 nm (bandwidth = 15 nm), respectively. […]
FP values were fitted to the general equation: Y = Bottom + (Top–Bottom)/[1 + (10^(X-logIC50)*HillSlope)], where X is the logarithmic value of peptide/compound concentration, and Y is the experimental FP values. Competitive inhibition constants, Ki values, were calculated from the IC50 values to quantify affinities between test substance and protein[42]. […]

[1] = target: PDZ1-2 (61-249) from PSD-95 (human); assay: fluorescence polarisation; inhibition of TAMRA-Cnskr2 (5 nM)/PDZ2 (1.5 μM) or PDZ1-2 (1 μM) by increasing unlabelled nNOS-PDZ or GluN2B-C5; 1 x TBS pH 7.4; Ki calculated from IC50
[2] = target: PDZ2 (155-249) from PSD-95 (human); assay: as above
[3] = target: TAMRA-labelled nNOS-PDZ (V36C) (human) (UniProt P29475); assay: fluorescence polarisation; saturation binding: increasing PDZ domain protein (typically 0-150 μM) added to a fixed low concentration of TAMRA- or Cy5-labelled probe (5 or 50 nM); 1 x TBS (150 mM NaCl, 10 mM Tris, pH 7.4), 10-15 min, room temperature
TAMRA-Cnskr2 = assay: as above
[4] = target: T2, PSD-95-PDZ2 (157-249, human) (human, UniProt P78352 157-249); assay: ITC; 25 °C, 20 mM phosphate buffer pH 6.3; 100 μM PDZ2 in the cell titrated with 750 μM nNOS-PDZ; one-site model; settings: both partners purified
T2 construct: PSD-95, human, PDZ2 domain, residues 157-249; Construct of the ITC and NMR experiments; 15N-labelled in some NMR samples

Question: How did the Kd (nNOS-PDZ; saturation curve, probe 50 nM) turn out when `CCN1C(=CC=CC=CC2=[N+](CCCCCC(=O)NCCN3C(=O)CC(SC[C@H](N)C(=O)N[C@@H](CC(N)=O)C(=O)N[C@@H](CC(N)=O)C(=O)NCC(=O)N[C@H](C(=O)N[C@@H](CCCNC(=N)N)C(=O)N4CCC[C@H]4C(=O)NCC(=O)N[C@H](C(=O)N[C@@H](CCCCN)C(=O)N[C@@H](CCC(=O)O)C(=O)N[C@@H](CO)C(=O)N[C@@H](CC(C)C)C(=O)N[C@H](C(=O)O)C(C)C)C(C)C)C(C)C)C3=O)c3ccc(S(=O)(=O)[O-])cc3C2(C)C)C(C)(C)c2cc(S(=O)(=O)O)ccc21` (some centres unmarked) [Cy5-Nav1.4] (H-C(X1)NNGVRPGVKESLV-OH; N-terminus assumed) was run?
Answer: Its Kd is 20000 ± 1000 nM.

Question: Which Ki [1] does the source give for GluN2B-C5 (peptide) here?
Answer: The Ki was 4800 nM.

Question: What about the Ki [2] of the same molecule?
Answer: The Ki was 1600 nM.

Question: How did the Ki (nNOS-PDZ; Cy5-Nav1.4 probe 50 nM / nNOS-PDZ) turn out when NNGVRPGVKESLV [Nav1.4-C10] was run?
Answer: Its Ki is 45000 ± 4000 nM.

Question: Which Kd [3] does the source give for “PDZ1 (61-151) from PSD-95 (domain or fragment)” here?
Answer: The Kd was 2400 nM.

Question: What does the source list for “PDZ1-2 (61-249) from PSD-95 (domain or fragment)”?
Answer: Kd [3]: 150 nM; Kd (TAMRA-Cnskr2): 1100 nM

Question: “PDZ2 (155-249) from PSD-95 (domain or fragment)” was tested. Which Kd [3] did it give?
Answer: The Kd was 1100 nM.

Question: And the Kd (TAMRA-Cnskr2)?
Answer: The Kd was 380 nM.

B1: extended Mus musculus nNOS-PDZ (residues 12-134) (domain or fragment, UniProt Q9Z0J4 12-134, looked up)
chain: QPNVISVRLFKRKVGGLGFLVKERVSKPPVIISDLIRGGAAEQSGLIQAGDIILAVNDRPLVDLSYDSALEVLRGIASETHVVLILRGPEGFTTHLETTFTGDGTPKTIRVTQPLGTPTKAVD
notes: neuronal nitric oxide synthase (nNOS), Mus musculus, extended PDZ domain, residues 12-134, Uniprot Q9JJ30; Construct of the ITC and NMR experiments; 15N-labelled in some NMR samples; also called extended nNOS-PDZ; source: sub-cloned into pETM11, expressed and purified following a similar protocol to that of PSD-95-PDZ2
Question: Which results are given for B1?
Answer: dH [4]: ~-1.7 kcal/mol; stoichiometry N [4]: 1
